Measurements published in publication PMC6366424, “Development of a novel, high-affinity ssDNA trypsin inhibitor”.

How the values were obtained:
Conditions in all cases: protein: commercial
[1] = molecular target: T1, bovine trypsin (Bos taurus (bovine), UniProt P00760 24-246); assay: bead pull-down; ELISA/pull-down: PBS pH 7.4, 5 mM MgCl2, 10 mM KCl, 0.01% Tween20, RT; SPR and inhibition (TAAB): 0.1 M Tris pH 7.5, 150 mM NaCl, 5 mM CaCl2, 10 mM KCl, 5 mM MgCl2, 0.02% Tween 20; inhibition at 37 C (full-length aptamer screen in selection buffer at RT)
[2] = molecular target: T1, bovine trypsin; assay: enzyme inhibition (mixed mode); BAPNA, TAAB, 37 C; ELISA/pull-down: PBS pH 7.4, 5 mM MgCl2, 10 mM KCl, 0.01% Tween20, RT; SPR and inhibition (TAAB): 0.1 M Tris pH 7.5, 150 mM NaCl, 5 mM CaCl2, 10 mM KCl, 5 mM MgCl2, 0.02% Tween 20; inhibition at 37 C (full-length aptamer screen in selection buffer at RT)
[3] = molecular target: T1, bovine trypsin; assay: SPR; kon 1.03e6 M-1s-1, koff 3.15e-3 s-1; TAAB; ELISA/pull-down: PBS pH 7.4, 5 mM MgCl2, 10 mM KCl, 0.01% Tween20, RT; SPR and inhibition (TAAB): 0.1 M Tris pH 7.5, 150 mM NaCl, 5 mM CaCl2, 10 mM KCl, 5 mM MgCl2, 0.02% Tween 20; inhibition at 37 C (full-length aptamer screen in selection buffer at RT)

T1 sequence (P00760 24-246): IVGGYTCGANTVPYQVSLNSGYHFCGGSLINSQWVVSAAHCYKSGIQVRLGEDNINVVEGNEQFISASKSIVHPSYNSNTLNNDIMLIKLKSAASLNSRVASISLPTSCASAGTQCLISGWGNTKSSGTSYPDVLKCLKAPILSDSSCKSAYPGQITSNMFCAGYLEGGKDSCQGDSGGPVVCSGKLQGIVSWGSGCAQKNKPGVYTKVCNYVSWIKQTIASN

B1: T22 (ssDNA)
DNA: CATGCTTCCCCAGGGAGATGGGTGTGAGGTTAGGAAATCTGTGTTGAACACTGCTTTCAGGGGGCTTGGGAGGAACATGCGTCGCAAAC
binding result [1]: binds

B2: T21 (ssDNA)
DNA: CATGCTTCCCCAGGGAGATGGGTGTGGGGTTAGGTCACTTTATGGTTGGTTCCATTGTGTCAGGGAGCCGGGAGGAACATGCGTCGCAAAC
binding result [1]: binds

B3: T59 (ssDNA)
DNA: CATGCTTCCCCAGGGAGATGGGTGTGAGGTTAGTTTGCGGTCCTGGCAAAGGGGGGCCTGGAGGAACATG
Ki [2]: 0.475 ± 0.048 µM

B4: T24 (ssDNA)
DNA: CATGCTTCCCCAGGGAGATGGGTGTGAGGTTAGTTTGCGGGAACTAGAATTCCTGGCAAAGGGGGGCCTGGAGGAACATGCGTCGCAAAC
Kd [3]: 0.00306 µM | Ki [2]: 0.176 ± 0.016 µM
